{"source": "patent US20240293504A1", "molecular_target": "CD91 (mouse) (UniProt Q91ZX7)", "sequence (Q91ZX7 20-4545)": "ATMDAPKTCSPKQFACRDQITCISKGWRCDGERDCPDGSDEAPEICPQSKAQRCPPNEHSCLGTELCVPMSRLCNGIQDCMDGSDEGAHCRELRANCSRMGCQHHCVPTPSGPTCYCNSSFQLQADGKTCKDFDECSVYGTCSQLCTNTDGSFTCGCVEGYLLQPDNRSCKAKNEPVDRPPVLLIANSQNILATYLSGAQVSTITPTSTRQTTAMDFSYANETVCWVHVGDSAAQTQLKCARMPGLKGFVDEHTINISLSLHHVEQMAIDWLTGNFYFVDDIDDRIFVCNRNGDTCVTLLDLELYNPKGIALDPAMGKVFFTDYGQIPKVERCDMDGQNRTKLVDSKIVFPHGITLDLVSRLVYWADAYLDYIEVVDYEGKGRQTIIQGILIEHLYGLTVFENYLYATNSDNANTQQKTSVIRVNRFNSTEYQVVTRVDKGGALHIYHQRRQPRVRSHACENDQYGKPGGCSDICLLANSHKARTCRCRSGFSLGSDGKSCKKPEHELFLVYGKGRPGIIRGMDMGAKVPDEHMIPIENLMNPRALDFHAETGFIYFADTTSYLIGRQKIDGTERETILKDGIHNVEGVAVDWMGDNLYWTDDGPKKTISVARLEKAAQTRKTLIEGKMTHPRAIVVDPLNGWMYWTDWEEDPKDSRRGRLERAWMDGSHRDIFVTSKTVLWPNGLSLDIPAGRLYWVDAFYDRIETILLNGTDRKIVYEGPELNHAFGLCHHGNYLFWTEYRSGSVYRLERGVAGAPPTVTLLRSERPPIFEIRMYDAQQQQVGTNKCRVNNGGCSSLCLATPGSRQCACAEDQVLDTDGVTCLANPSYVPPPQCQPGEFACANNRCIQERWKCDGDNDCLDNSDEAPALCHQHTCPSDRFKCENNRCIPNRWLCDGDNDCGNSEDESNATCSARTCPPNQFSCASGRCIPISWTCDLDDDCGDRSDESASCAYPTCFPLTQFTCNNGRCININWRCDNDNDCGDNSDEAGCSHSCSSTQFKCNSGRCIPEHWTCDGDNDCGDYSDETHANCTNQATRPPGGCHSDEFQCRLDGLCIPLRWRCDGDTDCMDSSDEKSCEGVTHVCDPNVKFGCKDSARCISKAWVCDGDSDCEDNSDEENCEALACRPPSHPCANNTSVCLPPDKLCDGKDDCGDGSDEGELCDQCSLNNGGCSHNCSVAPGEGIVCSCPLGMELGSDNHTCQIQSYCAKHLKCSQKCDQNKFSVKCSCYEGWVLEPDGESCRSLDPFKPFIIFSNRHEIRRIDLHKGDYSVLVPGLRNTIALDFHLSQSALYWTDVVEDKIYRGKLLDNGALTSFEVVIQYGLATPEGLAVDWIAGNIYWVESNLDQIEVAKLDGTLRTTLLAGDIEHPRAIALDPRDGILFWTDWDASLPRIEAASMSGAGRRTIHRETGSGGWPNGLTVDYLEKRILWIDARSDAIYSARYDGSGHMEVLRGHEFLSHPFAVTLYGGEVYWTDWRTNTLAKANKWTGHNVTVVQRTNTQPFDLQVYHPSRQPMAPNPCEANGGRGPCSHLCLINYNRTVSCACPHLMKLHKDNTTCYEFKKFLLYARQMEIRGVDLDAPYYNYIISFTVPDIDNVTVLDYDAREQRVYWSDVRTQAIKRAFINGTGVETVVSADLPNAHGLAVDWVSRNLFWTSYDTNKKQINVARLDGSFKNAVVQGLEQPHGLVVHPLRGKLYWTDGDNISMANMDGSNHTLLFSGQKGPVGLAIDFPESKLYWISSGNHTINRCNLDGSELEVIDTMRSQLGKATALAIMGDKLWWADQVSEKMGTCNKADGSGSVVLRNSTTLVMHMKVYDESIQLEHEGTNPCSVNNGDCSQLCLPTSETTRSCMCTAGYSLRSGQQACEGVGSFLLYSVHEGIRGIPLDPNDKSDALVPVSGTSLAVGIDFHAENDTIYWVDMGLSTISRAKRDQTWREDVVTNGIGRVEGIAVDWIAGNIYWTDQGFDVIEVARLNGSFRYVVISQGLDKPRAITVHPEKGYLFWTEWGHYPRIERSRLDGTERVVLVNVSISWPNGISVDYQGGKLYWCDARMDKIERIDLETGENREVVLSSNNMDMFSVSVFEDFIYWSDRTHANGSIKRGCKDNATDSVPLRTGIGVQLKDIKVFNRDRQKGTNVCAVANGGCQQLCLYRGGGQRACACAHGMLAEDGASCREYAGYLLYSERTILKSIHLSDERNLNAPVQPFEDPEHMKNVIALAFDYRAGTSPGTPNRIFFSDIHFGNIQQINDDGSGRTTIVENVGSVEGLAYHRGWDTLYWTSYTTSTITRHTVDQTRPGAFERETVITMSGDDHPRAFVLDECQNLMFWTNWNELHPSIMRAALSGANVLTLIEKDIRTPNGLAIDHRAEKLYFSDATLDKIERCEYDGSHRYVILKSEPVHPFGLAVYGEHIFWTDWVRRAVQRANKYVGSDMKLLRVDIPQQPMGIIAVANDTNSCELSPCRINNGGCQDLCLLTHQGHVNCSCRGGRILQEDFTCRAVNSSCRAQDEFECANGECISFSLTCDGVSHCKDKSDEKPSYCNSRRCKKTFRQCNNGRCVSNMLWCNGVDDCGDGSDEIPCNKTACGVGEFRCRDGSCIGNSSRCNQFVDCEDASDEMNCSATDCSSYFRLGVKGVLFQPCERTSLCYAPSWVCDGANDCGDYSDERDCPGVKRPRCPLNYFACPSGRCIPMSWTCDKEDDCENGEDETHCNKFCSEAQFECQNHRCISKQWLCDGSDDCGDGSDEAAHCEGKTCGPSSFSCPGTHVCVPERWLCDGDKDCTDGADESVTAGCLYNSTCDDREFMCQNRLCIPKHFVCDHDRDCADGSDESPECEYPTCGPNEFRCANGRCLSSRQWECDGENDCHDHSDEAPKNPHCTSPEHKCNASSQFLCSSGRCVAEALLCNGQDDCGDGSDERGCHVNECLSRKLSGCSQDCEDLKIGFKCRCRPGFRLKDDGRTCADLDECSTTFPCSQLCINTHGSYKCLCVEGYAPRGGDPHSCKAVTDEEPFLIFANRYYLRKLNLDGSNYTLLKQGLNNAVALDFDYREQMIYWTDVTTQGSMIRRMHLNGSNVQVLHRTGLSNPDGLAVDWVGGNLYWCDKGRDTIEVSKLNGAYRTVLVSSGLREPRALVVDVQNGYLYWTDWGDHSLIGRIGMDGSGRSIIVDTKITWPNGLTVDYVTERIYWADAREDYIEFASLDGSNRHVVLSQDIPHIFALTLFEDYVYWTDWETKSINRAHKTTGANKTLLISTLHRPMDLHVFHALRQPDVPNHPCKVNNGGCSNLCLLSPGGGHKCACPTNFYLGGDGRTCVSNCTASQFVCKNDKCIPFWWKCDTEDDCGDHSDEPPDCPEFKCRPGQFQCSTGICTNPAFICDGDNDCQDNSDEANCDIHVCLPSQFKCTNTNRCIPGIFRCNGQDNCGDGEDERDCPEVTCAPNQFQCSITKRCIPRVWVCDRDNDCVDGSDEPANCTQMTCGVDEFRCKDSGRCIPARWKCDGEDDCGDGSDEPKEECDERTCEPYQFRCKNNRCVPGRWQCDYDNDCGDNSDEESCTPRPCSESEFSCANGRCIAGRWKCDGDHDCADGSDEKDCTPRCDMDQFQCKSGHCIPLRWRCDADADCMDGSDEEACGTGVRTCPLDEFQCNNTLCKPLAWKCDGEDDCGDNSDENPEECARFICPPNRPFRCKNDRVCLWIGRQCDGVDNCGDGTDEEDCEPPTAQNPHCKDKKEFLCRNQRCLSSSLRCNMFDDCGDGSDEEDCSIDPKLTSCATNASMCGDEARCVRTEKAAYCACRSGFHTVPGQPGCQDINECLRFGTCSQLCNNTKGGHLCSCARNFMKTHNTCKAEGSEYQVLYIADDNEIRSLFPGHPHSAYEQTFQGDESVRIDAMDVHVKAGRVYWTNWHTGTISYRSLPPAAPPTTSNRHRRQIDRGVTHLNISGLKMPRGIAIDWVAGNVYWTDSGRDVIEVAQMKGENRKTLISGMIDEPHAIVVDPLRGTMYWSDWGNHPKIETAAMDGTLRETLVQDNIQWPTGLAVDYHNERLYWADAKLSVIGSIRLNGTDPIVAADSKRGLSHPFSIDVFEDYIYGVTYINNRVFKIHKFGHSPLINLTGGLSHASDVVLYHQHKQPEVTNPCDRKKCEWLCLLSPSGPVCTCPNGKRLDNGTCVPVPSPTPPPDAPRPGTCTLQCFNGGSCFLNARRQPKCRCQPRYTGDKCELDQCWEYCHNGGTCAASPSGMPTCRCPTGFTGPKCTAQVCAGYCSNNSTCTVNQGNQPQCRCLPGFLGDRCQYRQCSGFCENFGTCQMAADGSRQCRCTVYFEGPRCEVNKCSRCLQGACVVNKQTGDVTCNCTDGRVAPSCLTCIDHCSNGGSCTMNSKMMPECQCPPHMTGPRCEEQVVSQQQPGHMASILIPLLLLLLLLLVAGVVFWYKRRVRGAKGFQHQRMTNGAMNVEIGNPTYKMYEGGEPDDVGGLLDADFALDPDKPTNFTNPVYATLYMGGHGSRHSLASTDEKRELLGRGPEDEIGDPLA", "test": "cell-based or functional assay", "data": [{"substance": "calreticulin (CRT) (ligand)", "values": [{"measurement": "IFN alpha MFI (Fold Change), RAW264.7 M1 macrophages pulsed with calreticulin 10 ug/ml for 20 min", "result": 7.5, "unit": "fold"}, {"measurement": "IFN beta MFI (Fold Change), RAW264.7 M1 macrophages pulsed with calreticulin 10 ug/ml for 20 min", "result": 7, "unit": "fold"}, {"measurement": "IL-12 MFI (Fold Change), RAW264.7 M1 macrophages pulsed with calreticulin 10 ug/ml for 20 min", "result": 3.5, "unit": "fold"}, {"measurement": "IL-15 MFI (Fold Change), RAW264.7 M1 macrophages pulsed with calreticulin 10 ug/ml for 20 min", "result": 3.5, "unit": "fold"}]}]}
